In patent US20110207796:

How the values were obtained:
[1] = test system: human alpha-synuclein (wild-type, recombinant)
[2] = test system: alpha-synuclein A30P familial mutant
[3] = test system: alpha-synuclein A53T familial mutant
[4] = test system: alpha-synuclein E46K familial mutant
beta synuclein = beta synuclein (UniProt Q16143)
beta synuclein, sequence (Q16143 whole entry): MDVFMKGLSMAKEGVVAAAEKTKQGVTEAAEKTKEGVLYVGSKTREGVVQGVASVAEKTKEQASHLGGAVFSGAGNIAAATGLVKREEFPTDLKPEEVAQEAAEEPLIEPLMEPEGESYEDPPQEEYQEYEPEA

Polo like kinase 2 (PLK2), sequence (chain): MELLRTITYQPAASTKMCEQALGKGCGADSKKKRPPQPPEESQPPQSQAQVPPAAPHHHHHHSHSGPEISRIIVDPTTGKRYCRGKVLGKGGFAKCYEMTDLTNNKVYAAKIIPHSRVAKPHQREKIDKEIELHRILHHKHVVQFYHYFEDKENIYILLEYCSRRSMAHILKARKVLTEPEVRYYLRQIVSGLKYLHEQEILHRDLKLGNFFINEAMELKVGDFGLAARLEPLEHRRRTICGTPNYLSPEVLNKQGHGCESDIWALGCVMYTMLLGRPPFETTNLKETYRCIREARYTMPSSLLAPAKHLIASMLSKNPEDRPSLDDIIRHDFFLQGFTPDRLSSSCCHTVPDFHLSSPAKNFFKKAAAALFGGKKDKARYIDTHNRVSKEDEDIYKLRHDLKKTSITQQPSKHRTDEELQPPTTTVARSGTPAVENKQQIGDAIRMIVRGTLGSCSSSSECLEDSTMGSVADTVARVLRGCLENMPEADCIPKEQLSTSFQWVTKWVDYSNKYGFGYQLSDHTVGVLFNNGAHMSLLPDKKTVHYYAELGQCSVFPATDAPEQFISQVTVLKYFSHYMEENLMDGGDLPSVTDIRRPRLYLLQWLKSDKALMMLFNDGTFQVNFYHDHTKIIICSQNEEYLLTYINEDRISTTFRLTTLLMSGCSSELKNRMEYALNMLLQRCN

Substance | S129 phosphorylation in vitro, kinases normalized by activity units [1] | S129 phosphorylation, immunoblot (mAb 11A5), kinase:rAS 1:200 molar [1] | in vitro phosphorylation, autoradiography [2] | in vitro phosphorylation, autoradiography [3] | in vitro phosphorylation, autoradiography [4] | in vitro phosphorylation, autoradiography (beta synuclein) | Fold Change in Percent Synuclein Phosphorylation (ELISA, HEK-293 overexpression) [1] [fold] | Proportion of total synuclein that is phoshorylated at ser-129 (ELISA, HEK-293 overexpression) [1] [%] | S129 phosphorylation, immunoblot (mAb 11A5), rank of signal [1] | in vitro biochemical assay, phosphorylation of synuclein [1] | in vitro kinase reaction, phosphorylation of alpha-synuclein at serine 129 [1] | in vitro phosphorylation, autoradiography [1] | phospho ser-129 in vitro, kinases normalized for molarity [1] | phosphorylation of alpha-synuclein at S129 on co-expression in bacteria, mass spectrometry [1] | S87 phosphorylation, immunoblot (pAb ELADW-110), kinase:rAS 1:200 molar [1]
casein kinase 2 (CKII) | CKII was not detectable | Prominent signals came from GRK6, CKI, CKII and PLK2 | – | – | – | – | – | – | – | – | – | – | – | – | –
Polo like kinase 2 (PLK2) | – | Prominent signals came from GRK6, CKI, CKII and PLK2 | the mutant alpha-synucleins were phosphorylated more at a given concentration (especially at lower concentrations) than WT | the mutant alpha-synucleins were phosphorylated more at a given concentration (especially at lower concentrations) than WT | the mutant alpha-synucleins were phosphorylated more at a given concentration (especially at lower concentrations) than WT | minimally against beta synuclein | 21.2 | 42.3 | CKI>GRK6>PLK2>GRK4>GRK5>GRK2 | PLK2 and PLK3 having extremely robust phosphorylation of synuclein | capable of phosphorylating alpha-synuclein specifically at serine 129 and did not phosphorylate serine 87 in vitro | PLK2 was found to be more active against wild-type alpha synuclein than beta synuclein | roughly equivalent levels of phospho ser-129 between CKI, GRK6 and PLK2 | more than 95% phosphorylated | –
casein kinase I (CKI) | CKI gave a modest signal | Prominent signals came from GRK6, CKI, CKII and PLK2 | – | – | – | – | – | – | CKI>GRK6>PLK2>GRK4>GRK5>GRK2 | – | – | – | roughly equivalent levels of phospho ser-129 between CKI, GRK6 and PLK2 | – | A signal was detected only with CKI phosphorylation
